For 15 molecules, Ki results are on record in patent US20130012432A1 (Novo Nordisk, published 2013).

B1: Ac-c[Cys-Glu-His-D-Phe-Arg-Trp-Cys]-Pro-Pro-Lys-Glu-Lys(biscarboxymethyl)-Lys[(2-{2-[16-(tetrazol-5-yl)hexadecanoylamino]ethoxy}ethoxy)acetyl]-NH2 (peptide)
peptide: Ac-CEH[dF]RWCPPKE[Lys(CH2CO2H)2]K([AEEA-Palmitoyl(16-(5-tetrazolyl))])-NH2
modifications: disulfide 1-7
SMILES: CC(=O)N[C@H]1CSSC[C@@H](C(=O)N2CCC[C@H]2C(=O)N2CCC[C@H]2C(=O)N[C@@H](CCCCN)C(=O)N[C@@H](CCC(=O)O)C(=O)N[C@@H](CCCCN(CC(=O)O)CC(=O)O)C(=O)N[C@@H](CCCCNC(=O)COCCOCCNC(=O)CCCCCCCCCCCCCCCc2nnn[nH]2)C(N)=O)NC(=O)[C@H](Cc2c[nH]c3ccccc23)NC(=O)[C@H](CCCNC(=N)N)NC(=O)[C@@H](Cc2ccccc2)NC(=O)[C@H](Cc2c[nH]cn2)NC(=O)[C@H](CCC(=O)O)NC1=O
B2: Ac-c[Cys-Glu-His-D-Phe-Arg-Trp-Gly-Cys]-Pro-Pro-Lys-Glu-Lys(biscarboxymethyl)-Lys({2-[2-(15-carboxypentadecanoylamino)ethoxy]ethoxy}acetyl)-NH2 (peptide)
peptide: Ac-CEH[dF]RWGCPPKE[Lys(CH2CO2H)2]K([AEEA-C16 diacid])-NH2
modifications: disulfide 1-8
SMILES: CC(=O)N[C@H]1CSSC[C@@H](C(=O)N2CCC[C@H]2C(=O)N2CCC[C@H]2C(=O)N[C@@H](CCCCN)C(=O)N[C@@H](CCC(=O)O)C(=O)N[C@@H](CCCCN(CC(=O)O)CC(=O)O)C(=O)N[C@@H](CCCCNC(=O)COCCOCCNC(=O)CCCCCCCCCCCCCCC(=O)O)C(N)=O)NC(=O)CNC(=O)[C@H](Cc2c[nH]c3ccccc23)NC(=O)[C@H](CCCNC(=N)N)NC(=O)[C@@H](Cc2ccccc2)NC(=O)[C@H](Cc2c[nH]cn2)NC(=O)[C@H](CCC(=O)O)NC1=O
B3: Ac-c[Lys-His-D-Phe-Arg-Trp-Asp]-Pro-Pro-His-Glu-Glu-Ser-Ser-Glu-Lys({2-[2-(16-carboxyhexadecanoylamino)ethoxy]ethoxy}acetyl)-NH2 (peptide)
peptide: Ac-KH[dF]RWDPPHEESSEK([AEEA-C17 diacid])-NH2
modifications: lactam 1-6
SMILES: CC(=O)N[C@H]1CCCCNC(=O)C[C@@H](C(=O)N2CCC[C@H]2C(=O)N2CCC[C@H]2C(=O)N[C@@H](Cc2c[nH]cn2)C(=O)N[C@@H](CCC(=O)O)C(=O)N[C@@H](CCC(=O)O)C(=O)N[C@@H](CO)C(=O)N[C@@H](CO)C(=O)N[C@@H](CCC(=O)O)C(=O)N[C@@H](CCCCNC(=O)COCCOCCNC(=O)CCCCCCCCCCCCCCCC(=O)O)C(N)=O)NC(=O)[C@H](Cc2c[nH]c3ccccc23)NC(=O)[C@H](CCCNC(=N)N)NC(=O)[C@@H](Cc2ccccc2)NC(=O)[C@H](Cc2c[nH]cn2)NC1=O
B4: Ac-c[homoCys-His-D-Phe-Arg-Trp-Cys]-Pro-Pro-Lys-Asp-Lys(BCMA)-Lys[(2-{2-[16-(tetrazol-5-yl)hexadecanoylamino]ethoxy}ethoxy)acetyl]-NH2 (peptide)
peptide: Ac-[hCys]H[dF]RWCPPKDK(NTA)K([AEEA-Palmitoyl(16-(5-tetrazolyl))])-NH2
modifications: disulfide 1-6
SMILES: CC(=O)N[C@H]1CCSSC[C@@H](C(=O)N2CCC[C@H]2C(=O)N2CCC[C@H]2C(=O)N[C@@H](CCCCN)C(=O)N[C@@H](CC(=O)O)C(=O)N[C@@H](CCCCNC(=O)CN(CC(=O)O)CC(=O)O)C(=O)N[C@@H](CCCCNC(=O)COCCOCCNC(=O)CCCCCCCCCCCCCCCc2nnn[nH]2)C(N)=O)NC(=O)[C@H](Cc2c[nH]c3ccccc23)NC(=O)[C@H](CCCNC(=N)N)NC(=O)[C@@H](Cc2ccccc2)NC(=O)[C@H](Cc2c[nH]cn2)NC1=O
B5: Ac-c[homoCys-Gln-D-Phe-Arg-Trp-Cys]-Pro-Pro-Lys-Asp-Dap(BCMA)-Lys[(2-{2-[16-(tetrazol-5-yl)hexadecanoylamino]ethoxy}ethoxy)acetyl]-NH2 (peptide)
peptide: Ac-[hCys]Q[dF]RWCPPKD[Dap](NTA)K([AEEA-Palmitoyl(16-(5-tetrazolyl))])-NH2
modifications: disulfide 1-6
SMILES: CC(=O)N[C@H]1CCSSC[C@@H](C(=O)N2CCC[C@H]2C(=O)N2CCC[C@H]2C(=O)N[C@@H](CCCCN)C(=O)N[C@@H](CC(=O)O)C(=O)N[C@@H](CNC(=O)CN(CC(=O)O)CC(=O)O)C(=O)N[C@@H](CCCCNC(=O)COCCOCCNC(=O)CCCCCCCCCCCCCCCc2nnn[nH]2)C(N)=O)NC(=O)[C@H](Cc2c[nH]c3ccccc23)NC(=O)[C@H](CCCNC(=N)N)NC(=O)[C@@H](Cc2ccccc2)NC(=O)[C@H](CCC(N)=O)NC1=O
B6: Ac-c[homoCys-Hyp-D-Phe-Arg-Trp-Cys]-Pro-Pro-Lys-Asp-Dap(BCMA)-Lys[(2-{2-[16-(tetrazol-5-yl)hexadecanoylamino]ethoxy}ethoxy)acetyl]-NH2 (peptide)
peptide: Ac-[hCys][Hyp][dF]RWCPPKD[Dap](NTA)K([AEEA-Palmitoyl(16-(5-tetrazolyl))])-NH2
modifications: disulfide 1-6
SMILES: CC(=O)N[C@H]1CCSSC[C@@H](C(=O)N2CCC[C@H]2C(=O)N2CCC[C@H]2C(=O)N[C@@H](CCCCN)C(=O)N[C@@H](CC(=O)O)C(=O)N[C@@H](CNC(=O)CN(CC(=O)O)CC(=O)O)C(=O)N[C@@H](CCCCNC(=O)COCCOCCNC(=O)CCCCCCCCCCCCCCCc2nnn[nH]2)C(N)=O)NC(=O)[C@H](Cc2c[nH]c3ccccc23)NC(=O)[C@H](CCCNC(=N)N)NC(=O)[C@@H](Cc2ccccc2)NC(=O)[C@@H]2C[C@@H](O)CN2C1=O
B7: Ac-c[Lys-His-D-Phe-Arg-Trp-Asp]-Pro-Ser-Ser-Ser-Lys(biscarboxymethyl)-Ser-Ser-NH(2-{2-[2-(17-carboxyheptadecanoylamino)ethoxy]ethoxy}ethyl) (peptide)
peptide: Ac-KH[dF]RWDPSSS[Lys(CH2CO2H)2]SS-X5
modifications: lactam 1-6
SMILES: CC(=O)N[C@H]1CCCCNC(=O)C[C@@H](C(=O)N2CCC[C@H]2C(=O)N[C@@H](CO)C(=O)N[C@@H](CO)C(=O)N[C@@H](CO)C(=O)N[C@@H](CCCCN(CC(=O)O)CC(=O)O)C(=O)N[C@@H](CO)C(=O)N[C@@H](CO)C(=O)NCCOCCOCCNC(=O)CCCCCCCCCCCCCCCCC(=O)O)NC(=O)[C@H](Cc2c[nH]c3ccccc23)NC(=O)[C@H](CCCNC(=N)N)NC(=O)[C@@H](Cc2ccccc2)NC(=O)[C@H](Cc2c[nH]cn2)NC1=O

Positions of bridges follow the written chain, without caps; N, C: chain ends. Non-standard residues stand in square brackets, D forms with d. Groups on a side chain read outwards from the residue. Primed or numbered codes have the meaning given here. *: point of attachment. X2 = (2-(2-(16-(tetrazol-5-yl)hexadecanoylamino)ethoxy)ethoxy)acetyl, O=C(CCCCCCCCCCCCCCCc1nn[nH]n1)NCCOCCOCC(=O)*; X5 = NH(2-(2-(2-(17-carboxyheptadecanoylamino)ethoxy)ethoxy)ethyl), O=C(O)CCCCCCCCCCCCCCCCC(=O)NCCOCCOCCN*; biscarboxymethyl = Lys(biscarboxymethyl) = Nepsilon-bis(carboxymethyl)-L-lysine; bis(carboxymethyl) = Lys(biscarboxymethyl) = N6-bis(carboxymethyl)-L-lysine; Palmitoyl(16-(5-tetrazolyl)) = O=C(CCCCCCCCCCCCCCCc1nnn[nH]1)*; biscarboxymethyl(3) = Nepsilon-bis(carboxymethyl) on Lys; Lys(CH2CO2H)2 = N[C@@H](CCCCN(CC(=O)O)CC(=O)O)C(=O)O; C17 diacid = O=C(O)CCCCCCCCCCCCCCCC(=O)*; C16 diacid = O=C(O)CCCCCCCCCCCCCCC(=O)*; Hyp = O=C(O)[C@@H]1C[C@@H](O)CN1; NTA = O=C(O)CN(CC(=O)O)CC(=O)*; hCys = N[C@@H](CCS)C(=O)O; Orn = NCCC[C@H](N)C(=O)O; Dab = NCC[C@H](N)C(=O)O; Dap = NC[C@H](N)C(=O)O; AEEA = NCCOCCOCC(=O)O

The target of the test is T1, human MC4 receptor (human, UniProt P32245 1-332).
T1 construct: whole, on cells; Assayed as membranes of BHK cells stably expressing the receptor; also called melanocortin receptor subtype 4; melanocortin receptor 4
T1 sequence (P32245 whole entry): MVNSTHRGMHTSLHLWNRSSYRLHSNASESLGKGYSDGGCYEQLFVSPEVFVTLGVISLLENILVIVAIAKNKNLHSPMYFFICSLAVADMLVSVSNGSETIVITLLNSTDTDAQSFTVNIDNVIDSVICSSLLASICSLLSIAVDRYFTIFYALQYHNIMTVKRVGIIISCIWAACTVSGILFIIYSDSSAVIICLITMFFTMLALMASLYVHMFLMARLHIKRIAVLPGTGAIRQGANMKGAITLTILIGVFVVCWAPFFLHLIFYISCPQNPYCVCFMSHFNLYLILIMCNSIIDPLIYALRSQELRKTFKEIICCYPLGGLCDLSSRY
Description: 125I-NDP-α-MSH displacement, BHK-human MC4 membranes (Assay V).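 Further: Filter-retained radioactivity read by gamma counting, with affinity obtained through non-linear regression fitting of the binding curves.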
Description: The membranes were prepared from frozen or fresh cells that were homogenized in 20 mM HEPES pH 7.1, 5 mM MgCl₂ and 1 mg/ml bacitracin and centrifuged at 15000 rpm at 4° C., 10 min in a Sorvall RC 5B plus, SS-34 rotor. The supernatant was discarded, and the pellets were re-suspended in buffer, homogenized and centrifuged two more times. The final pellets were resuspended in the buffer mentioned above, and the protein concentration was measured and adjusted with buffer to 14 to 17 mg/ml and the membrane preparation were kept at −80° C. until assay. The assay was run directly on a dilution of this cell membrane suspension, without any further preparation. The BHK cell membranes are kept at −80° C. until assay, and the assay is run directly on a dilution of this cell membrane suspension, without further preparation. The suspension is diluted to give maximally 10% specific binding, i.e. to approx. 50-100 fold dilution. […] Test compounds were dissolved in DMSO and diluted in binding buffer. Radiolabelled ligand and membranes were diluted in binding buffer. The incubation was stopped by dilution with 2×100 μl ice-cold 0.9% NaCl. The radioactivity retained on the filters was counted using a Cobra II auto gamma counter.
The data were analysed by non-linear regression analysis of binding curves, using the Windows™ program GraphPad™ Prism (GraphPad Software, USA).
Molecule Ac-[Orn]H[dF]RWEPSSSK(bis(carboxymethyl))SSK([AEEA-C17 diacid])-NH2 (lactam 1-6) had a Ki of 6.35 nM.

B1 gave a Ki of 15 nM.

As for B2, the Ki came out at 55 nM.

Turning to B3, the inhibition constant (Ki) is 30 nM.

Consider Ac-[hCys]H[dF]RWCPPKEK(bis(carboxymethyl))K([AEEA-C16 diacid])-NH2 (disulfide 1-6), for which the affinity, expressed as Ki, was 17 nM.

In the case of Ac-[hCys]H[dF]RWCPPSEK(bis(carboxymethyl))K([AEEA-C16 diacid])-NH2 (disulfide 1-6), the Ki came to 70 nM.

B4 returned a Ki of 0.4 nM.

Turning to B5, the affinity, expressed as Ki, was 1.06 nM.

Molecule B6 showed a Ki of 0.62 nM.

The molecule Ac-[Dab]H[dF]RWDPPREK(biscarboxymethyl(3))K([AEEA-Palmitoyl(16-(5-tetrazolyl))])-NH2 (lactam 1-6) had a Ki of 8.45 nM.

Ac-[Orn]H[dF]RWEPPHEK(bis(carboxymethyl))K([AEEA-C17 diacid])-NH2 (lactam 1-6) yielded a Ki of 21.5 nM.

With Ac-[Dab]H[dF]RWEPPRDK(biscarboxymethyl(3))K([AEEA-Palmitoyl(16-(5-tetrazolyl))])-NH2 (lactam 1-6), the Ki is 107 nM.

Ac-[Dab]H[dF]RWDPPHEK(biscarboxymethyl(3))K([AEEA-Palmitoyl(16-(5-tetrazolyl))])-NH2 (lactam 1-6) yielded a Ki of 76 nM.

Regarding Ac-[Orn]H[dF]RWDPPHEK(biscarboxymethyl)K(X2)-NH2 (lactam 1-6), the affinity corresponds to a Ki of 1.43 nM.

Molecule B7 showed a Ki of 2.75 nM.

The Ki is a measure of affinity in units of concentration, obtained from inhibition or displacement. A low value points to higher affinity.
